Reference: article PMC7293217, “TECPR1 promotes aggrephagy by direct recruitment of LC3C autophagosomes to lysosomes” (Nature Communications, 2020)

Target: T1, TECPR1 (purified, on GUVs) (human, UniProt Q7Z6L1 1-1165)
T1 construct: TECPR1, human, full-length cDNA of isoform 1, cloned into pCoofy29; TECPR1 could be labeled on native cysteines (Alexa Fluor 488 or CF405M); also called recombinant TECPR1; source: High Five insect cells, purified (Ni-NTA, PreScission, Superdex 200); not shown: His6, N-terminal, cleaved; MBP, N-terminal, cleaved
T1 sequence (looked up): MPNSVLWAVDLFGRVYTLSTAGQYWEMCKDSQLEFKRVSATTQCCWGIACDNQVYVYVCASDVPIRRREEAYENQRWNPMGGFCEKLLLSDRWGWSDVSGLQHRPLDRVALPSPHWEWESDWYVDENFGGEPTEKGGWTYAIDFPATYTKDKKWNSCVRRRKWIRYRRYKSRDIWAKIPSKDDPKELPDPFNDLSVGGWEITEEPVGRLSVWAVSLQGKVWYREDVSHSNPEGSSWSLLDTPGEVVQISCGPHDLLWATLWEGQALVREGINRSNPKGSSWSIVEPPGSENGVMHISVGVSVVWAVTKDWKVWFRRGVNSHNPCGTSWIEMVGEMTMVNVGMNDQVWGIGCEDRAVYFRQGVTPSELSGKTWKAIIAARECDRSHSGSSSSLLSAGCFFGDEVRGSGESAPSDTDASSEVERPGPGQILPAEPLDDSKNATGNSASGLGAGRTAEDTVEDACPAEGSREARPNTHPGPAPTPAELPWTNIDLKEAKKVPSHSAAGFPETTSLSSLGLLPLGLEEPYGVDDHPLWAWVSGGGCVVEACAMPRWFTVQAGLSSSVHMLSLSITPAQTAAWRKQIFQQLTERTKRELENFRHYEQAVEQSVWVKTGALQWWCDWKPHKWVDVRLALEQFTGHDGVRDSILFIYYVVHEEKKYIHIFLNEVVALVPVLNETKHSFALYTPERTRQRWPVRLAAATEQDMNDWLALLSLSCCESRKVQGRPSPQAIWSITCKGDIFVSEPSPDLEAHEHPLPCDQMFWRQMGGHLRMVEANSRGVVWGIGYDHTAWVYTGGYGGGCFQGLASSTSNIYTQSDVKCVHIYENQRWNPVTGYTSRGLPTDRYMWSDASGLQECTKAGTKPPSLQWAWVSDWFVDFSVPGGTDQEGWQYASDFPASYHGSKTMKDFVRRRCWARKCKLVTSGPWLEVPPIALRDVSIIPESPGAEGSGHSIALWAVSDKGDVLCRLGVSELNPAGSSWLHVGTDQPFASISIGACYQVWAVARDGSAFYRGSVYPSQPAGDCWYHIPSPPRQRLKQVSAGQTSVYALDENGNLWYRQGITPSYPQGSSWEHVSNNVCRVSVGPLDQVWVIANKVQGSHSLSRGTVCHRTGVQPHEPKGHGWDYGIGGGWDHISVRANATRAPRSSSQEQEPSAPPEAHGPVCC
Experiment: recruitment of SUVs to GUVs seen by fluorescence microscopy; reconstitution with purified proteins: Alexa488-LC3C conjugated to SUVs coincubated with GUVs decorated with TECPR1; GUVs without TECPR1 as control
Settings: both partners purified

B1: Alexa488-labeled LC3C conjugated to SUVs (natural protein, human, UniProt Q9BXW4 1-126, looked up)
chain: MPPPQKIPSVRPFKQRKSLAIRQEEVAGIRAKFPNKIPVVVERYPRETFLPPLDKTKFLVPQELTMTQFLSIIRSRMVLRATEAFYLLVNNKSLVSMSATMAEIYRDYKDEDGFVYMTYASQETFG
modifications: Alexa Fluor 488 C5 maleimide on the introduced N-terminal cysteine; conjugated to SUVs
B1: binds.
